Data from the supplement of paper PMC7125110.
± gives the standard error. For some assays here: Variants at the floor of the assay were thinned out.

B1: glmS ribozyme (parent)
chain: AUAAAAGCGCCAGAACUACAGAAAUGUAGUUGACGAGGAGGAGGUUUAUCGAAUUUUCGGCGGAUGCCUCCAAA

What was measured:
Details in all cases: with glucosamine-6-phosphate
glucosamine-6-phosphate [1] = variants of: B1; assay: kcat; higher = faster cleavage; RNA array
In short: (§1)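 Glucosamine-6-phosphate in HEPES/KCl/Mg(OAc)2 buffer, at 40 μM to 10 mM, was flowed over barcoded ribozyme variants transcribed in situ by E. coli RNA polymerase on sequenced MiSeq chips. Tracking was through a hybridised Cy3 probe at 37 °C. kobs, kcat and KM came from exponential decay fits and weighted Michaelis–Menten fits of normalised per-tile medians.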

glucosamine-6-phosphate [2] = variants of: B1; assay: self-cleavage kobs at 40 uM GlcN6P; higher = faster cleavage; RNA array
In short: as §1

glucosamine-6-phosphate [3] = variants of: B1; assay: KM; higher = weaker cofactor use; RNA array
In short: as §1

glucosamine-6-phosphate [4] = variants of: B1; assay: self-cleavage kobs at 160 uM GlcN6P; higher = faster cleavage; RNA array
In short: as §1

glucosamine-6-phosphate [5] = variants of: B1; assay: self-cleavage kobs at 640 uM GlcN6P; higher = faster cleavage; RNA array
In short: as §1

glucosamine-6-phosphate [6] = variants of: B1; assay: self-cleavage kobs at 2500 uM GlcN6P; higher = faster cleavage; RNA array
In short: as §1

glucosamine-6-phosphate [7] = variants of: B1; assay: self-cleavage kobs at 10000 uM GlcN6P; higher = faster cleavage; RNA array
In short: as §1

| Variant | kcat (glucosamine-6-phosphate [1]) | self-cleavage kobs at 40 uM GlcN6P (glucosamine-6-phosphate [2]) | KM (glucosamine-6-phosphate [3]) | self-cleavage kobs at 160 uM GlcN6P (glucosamine-6-phosphate [4]) | self-cleavage kobs at 640 uM GlcN6P (glucosamine-6-phosphate [5]) | self-cleavage kobs at 2500 uM GlcN6P (glucosamine-6-phosphate [6]) | self-cleavage kobs at 10000 uM GlcN6P (glucosamine-6-phosphate [7]) |
| --- | --- | --- | --- | --- | --- | --- | --- |
| AUAAAAGCGCCAGAACUACAGAAAUGUAGUUGACGAGGAGGAGGUUUAUCGAAUUUUCGGCGGUUUCCUCCAAA | < 1e-05 s⁻¹ | < 1e-05 s⁻¹ |  |  |  |  |  |
| AUAAAAGCGCCCGACCUACAGAAAUGUAGUUGACGAGGAGGAGGUUUAUCGAAUUUUCGGCGGAUGCCUCCAAA | 0.00209 ± 0.00064 s⁻¹ | 6.78e-05 ± 1.4e-05 s⁻¹ | 2000 ± 880 µM | 0.000151 ± 2.5e-05 s⁻¹ | 0.000451 ± 9e-05 s⁻¹ | 0.000976 ± 0.00019 s⁻¹ | 0.00216 ± 0.00038 s⁻¹ |
| AUAAAAGCACCAGAACUACAGAAAUGUAGUUGACGACGAGGAGGUUUAUCGAAUUUUCGGCGGAUGCCUCCAAA | < 1e-05 s⁻¹ | < 1e-05 s⁻¹ |  |  |  |  |  |
| AUAAAAGCGCCAGAACUACAGAAAUGUAGCUGACGAGGAGGAGGUUUAUCGAAUUUUCGGCGGAUGCCUACAAA | 5.42e-05 ± 6.4e-06 s⁻¹ |  |  | 5.93e-05 ± 2.3e-05 s⁻¹ | 7.04e-05 ± 2.5e-05 s⁻¹ | 5.57e-05 ± 1.8e-05 s⁻¹ | 4.43e-05 ± 1.5e-05 s⁻¹ |
| AUAAAAGCGCGAGGACUACAGAAAUGUAGUUGACGAGGAGGAGGUUUAUCGAAUUUUCGGCGGAUGCCUCCAAA | 1.62e-05 ± 3.1e-06 s⁻¹ | < 1e-05 s⁻¹ |  | < 1e-05 s⁻¹ |  |  |  |
| AUAAAAGCGCCAGAACUACAGAAAUGUACUUGACGAGGAGGAGGUUUAUCGAAGUUUCGGCGGAUGCCUCCAAA | 0.000894 ± 0.00025 s⁻¹ | 6e-05 ± 1.7e-05 s⁻¹ |  |  | 0.000289 ± 6.5e-05 s⁻¹ | 0.00051 ± 0.00013 s⁻¹ | 0.000918 ± 0.00014 s⁻¹ |
| AUAAAAGCGCCCGAACUACAGAAAUGUAGUUGACGAGUAGGAGGUUUAUCGAAUUUUCGGCGGAUGCCUCCAAA | < 1e-05 s⁻¹ |  | 1280 ± 390 µM |  |  |  |  |
| AUAAAAGCGCCUGCACUACAGAAAUGUAGUUGACGAGGAGGAGGUUUAUCGAAUUUUCGGCGGAUGCCUCCAAA | 0.00505 ± 0.0013 s⁻¹ | 0.000142 ± 1.3e-05 s⁻¹ | 1630 ± 560 µM | 0.000429 ± 6.9e-05 s⁻¹ | 0.00117 ± 0.00016 s⁻¹ | 0.00261 ± 0.00038 s⁻¹ | 0.00546 ± 0.00066 s⁻¹ |
| AUAAAAGCGCCAGAACUACAGAAAUGUAGUUGACGAGGUGGAGGUUUAUCAAAUUUUCGGCGGAUGCCUCCAAA | < 1e-05 s⁻¹ | < 1e-05 s⁻¹ |  | < 1e-05 s⁻¹ |  |  | < 1e-05 s⁻¹ |
| AUAAAAGCGCCAAAACUACAGAAAUGUAGUUGACGAGGAGGAGGUUCAUCGAAUUUUCGGCGGAUGCCUCCAAA | 8.51e-05 ± 5.3e-06 s⁻¹ |  | 7300 ± 1000 µM |  |  |  | 4.92e-05 ± 1.1e-05 s⁻¹ |
| AUAAAAGCGCCGGAACUACAGAAAUGUAGUUGACGAGGAGGAGGCUUAUCGAAUUUUCGGCGGAUGCCUCCAAA | 6.32e-05 ± 3.9e-06 s⁻¹ |  | 2510 ± 620 µM |  |  | 3.29e-05 ± 1.6e-05 s⁻¹ | 5.04e-05 ± 8e-06 s⁻¹ |
| AUAAAAGCGCCAGAACUACAGAAAUGUAGUUGUCGAGGAGGAGGUUUAUCGAAUUUUCGGCGGAUACCUCCAAA | 6.76e-05 ± 1.2e-06 s⁻¹ |  | 2790 ± 180 µM |  |  | 3.2e-05 ± 1e-05 s⁻¹ | 5.28e-05 ± 6.4e-06 s⁻¹ |
| AUAAAAGCGCCAGACCUACAGAAAUGUAGUCGACGAGGAGGAGGUUUAUCGAAUUUUCGGCGGAUGCCUCCAAA | 0.00282 ± 0.00061 s⁻¹ | 4.49e-05 ± 9.1e-06 s⁻¹ | 3830 ± 1200 µM | 0.000136 ± 3e-05 s⁻¹ | 0.000359 ± 4.3e-05 s⁻¹ | 0.00104 ± 0.00023 s⁻¹ | 0.00211 ± 0.00024 s⁻¹ |
| AUAAAAGCGCCAGAACUACAGAAAUGUAGUUGACGAGGAGGAGGUUUAACGAAUAUUCGGCGGAUGCCUCCAAA | 3.61e-05 ± 1.5e-06 s⁻¹ |  | 5970 ± 610 µM |  |  |  | 2.26e-05 ± 9.3e-06 s⁻¹ |
| AUAAAAGCGCCAGAACUACAGAAAUGUAGUAGACGAGGAGGAGUUUUAUCGAAUUUUCGGCGGAUGCCUCCAAA | 0.00017 ± 9.6e-06 s⁻¹ |  | 3960 ± 530 µM |  |  | 6.38e-05 ± 1.6e-05 s⁻¹ | 0.000122 ± 1.8e-05 s⁻¹ |
| AUAAAAGCGCCAGAACUACAGAAAUGUAGAUGACGAGGAGGUGGUUUAUCGAAUUUUCGGCGGAUGCCUCCAAA | 1.63e-05 ± 1.2e-07 s⁻¹ |  | 588 ± 46 µM | < 1e-05 s⁻¹ |  |  | 1.54e-05 ± 7.6e-06 s⁻¹ |
| AUAAAAGCGCCAGAACUACAGAAAUGUAUUUGACGAGGAGGAGGUUUAUCGAAUUUUCGGCGGAUGCCUGCAAA | 7.29e-05 ± 6.3e-06 s⁻¹ |  | 354 ± 150 µM |  | 5.02e-05 ± 8.2e-06 s⁻¹ | 6.59e-05 ± 7.1e-06 s⁻¹ | 6.77e-05 ± 7.7e-06 s⁻¹ |
| AUAAAAACGCCAGAACUACAGAAAUGUAGUUGACGAGGAGGAGGUUGAUCGAAUUUUCGGUGGAUGCCUCCAAA | 1.24e-05 ± 4e-06 s⁻¹ |  |  |  |  |  |  |
| AUAAAAGCGCCAGAACUACAGAAAUGUAGUUGACGAGGAGGAGGUUUAUCGUAUUUUCGGCGGAUGCCUCUAAA | 0.000457 ± 4e-05 s⁻¹ |  | 2130 ± 390 µM |  | 0.0001 ± 1.4e-05 s⁻¹ | 0.000275 ± 2.9e-05 s⁻¹ | 0.000362 ± 3.4e-05 s⁻¹ |
